Source: FireProtDB (doi:10.1021/bi0512400)

Details: Capra hircus; pH 7.5; 25 °C; GdnHCl; CD; Tris 20 mM; Ca2+ 10 mM; whole UniProt chain shown

B1: Alpha-lactalbumin wild type, P00712 (protein)
chain: MMSFVSLLLVGILFHATQAEQLTKCEVFQKLKDLKDYGGVSLPEWVCTAFHTSGYDTQAIVQNNDSTEYGLFQINNKIWCKDDQNPHSRNICNISCDKFLDDDLTDDIVCAKKILDKVGINYWLAHKALCSEKLDQWLCEKL
denaturant m value: 3 kcal/mol/M | unfolding free energy: 10.2 kcal/mol
